{
  "source": "patent US20190338009A1",
  "about": "(ZEALAND PHARMA A S, published 2019)",
  "binders": {"B1": {"name": "Compound 36 (peptide)", "peptide": "H-H[Aib]EGTFTSELATILDEQAARDFINWLKSYKITD-OH", "SMILES": "CC[C@H](C)[C@H](NC(=O)[C@H](Cc1ccccc1)NC(=O)[C@H](CC(=O)O)NC(=O)[C@H](CCCNC(=N)N)NC(=O)[C@H](C)NC(=O)[C@H](C)NC(=O)[C@H](CCC(N)=O)NC(=O)[C@H](CCC(=O)O)NC(=O)[C@H](CC(=O)O)NC(=O)[C@H](CC(C)C)NC(=O)[C@@H](NC(=O)[C@@H](NC(=O)[C@H](C)NC(=O)[C@H](CC(C)C)NC(=O)[C@H](CCC(=O)O)NC(=O)[C@H](CO)NC(=O)[C@@H](NC(=O)[C@H](Cc1ccccc1)NC(=O)[C@@H](NC(=O)CNC(=O)[C@H](CCC(=O)O)NC(=O)C(C)(C)NC(=O)[C@@H](N)Cc1c[nH]cn1)[C@@H](C)O)[C@@H](C)O)[C@@H](C)O)[C@@H](C)CC)C(=O)N[C@@H](CC(N)=O)C(=O)N[C@@H](Cc1c[nH]c2ccccc12)C(=O)N[C@@H](CC(C)C)C(=O)N[C@@H](CCCCN)C(=O)N[C@@H](CO)C(=O)N[C@@H](Cc1ccc(O)cc1)C(=O)N[C@@H](CCCCN)C(=O)N[C@H](C(=O)N[C@H](C(=O)N[C@@H](CC(=O)O)C(=O)O)[C@@H](C)O)[C@@H](C)CC"}, "B2": {"name": "Compound 37 (peptide)", "peptide": "H-H[Aib]EGTFTSELATILDEQAARDFINWLKEQKITD-OH", "SMILES": "CC[C@H](C)[C@H](NC(=O)[C@H](Cc1ccccc1)NC(=O)[C@H](CC(=O)O)NC(=O)[C@H](CCCNC(=N)N)NC(=O)[C@H](C)NC(=O)[C@H](C)NC(=O)[C@H](CCC(N)=O)NC(=O)[C@H](CCC(=O)O)NC(=O)[C@H](CC(=O)O)NC(=O)[C@H](CC(C)C)NC(=O)[C@@H](NC(=O)[C@@H](NC(=O)[C@H](C)NC(=O)[C@H](CC(C)C)NC(=O)[C@H](CCC(=O)O)NC(=O)[C@H](CO)NC(=O)[C@@H](NC(=O)[C@H](Cc1ccccc1)NC(=O)[C@@H](NC(=O)CNC(=O)[C@H](CCC(=O)O)NC(=O)C(C)(C)NC(=O)[C@@H](N)Cc1c[nH]cn1)[C@@H](C)O)[C@@H](C)O)[C@@H](C)O)[C@@H](C)CC)C(=O)N[C@@H](CC(N)=O)C(=O)N[C@@H](Cc1c[nH]c2ccccc12)C(=O)N[C@@H](CC(C)C)C(=O)N[C@@H](CCCCN)C(=O)N[C@@H](CCC(=O)O)C(=O)N[C@@H](CCC(N)=O)C(=O)N[C@@H](CCCCN)C(=O)N[C@H](C(=O)N[C@H](C(=O)N[C@@H](CC(=O)O)C(=O)O)[C@@H](C)O)[C@@H](C)CC"}, "B3": {"name": "Compound 39 (peptide)", "peptide": "H-H[Aib]EGTFSSELSTILEEQASREFIAWLIAHKITE-OH", "SMILES": "CC[C@H](C)[C@H](NC(=O)[C@H](CC(C)C)NC(=O)[C@H](Cc1c[nH]c2ccccc12)NC(=O)[C@H](C)NC(=O)[C@@H](NC(=O)[C@H](Cc1ccccc1)NC(=O)[C@H](CCC(=O)O)NC(=O)[C@H](CCCNC(=N)N)NC(=O)[C@H](CO)NC(=O)[C@H](C)NC(=O)[C@H](CCC(N)=O)NC(=O)[C@H](CCC(=O)O)NC(=O)[C@H](CCC(=O)O)NC(=O)[C@H](CC(C)C)NC(=O)[C@@H](NC(=O)[C@@H](NC(=O)[C@H](CO)NC(=O)[C@H](CC(C)C)NC(=O)[C@H](CCC(=O)O)NC(=O)[C@H](CO)NC(=O)[C@H](CO)NC(=O)[C@H](Cc1ccccc1)NC(=O)[C@@H](NC(=O)CNC(=O)[C@H](CCC(=O)O)NC(=O)C(C)(C)NC(=O)[C@@H](N)Cc1c[nH]cn1)[C@@H](C)O)[C@@H](C)O)[C@@H](C)CC)[C@@H](C)CC)C(=O)N[C@@H](C)C(=O)N[C@@H](Cc1c[nH]cn1)C(=O)N[C@@H](CCCCN)C(=O)N[C@H](C(=O)N[C@H](C(=O)N[C@@H](CCC(=O)O)C(=O)O)[C@@H](C)O)[C@@H](C)CC"}, "B4": {"name": "Compound 41 (peptide)", "peptide": "H-H[Aib]EGSFSSELATILDEQAARDFIAWLIQHKITD-OH", "SMILES": "CC[C@H](C)[C@H](NC(=O)[C@H](Cc1ccccc1)NC(=O)[C@H](CC(=O)O)NC(=O)[C@H](CCCNC(=N)N)NC(=O)[C@H](C)NC(=O)[C@H](C)NC(=O)[C@H](CCC(N)=O)NC(=O)[C@H](CCC(=O)O)NC(=O)[C@H](CC(=O)O)NC(=O)[C@H](CC(C)C)NC(=O)[C@@H](NC(=O)[C@@H](NC(=O)[C@H](C)NC(=O)[C@H](CC(C)C)NC(=O)[C@H](CCC(=O)O)NC(=O)[C@H](CO)NC(=O)[C@H](CO)NC(=O)[C@H](Cc1ccccc1)NC(=O)[C@H](CO)NC(=O)CNC(=O)[C@H](CCC(=O)O)NC(=O)C(C)(C)NC(=O)[C@@H](N)Cc1c[nH]cn1)[C@@H](C)O)[C@@H](C)CC)C(=O)N[C@@H](C)C(=O)N[C@@H](Cc1c[nH]c2ccccc12)C(=O)N[C@@H](CC(C)C)C(=O)N[C@H](C(=O)N[C@@H](CCC(N)=O)C(=O)N[C@@H](Cc1c[nH]cn1)C(=O)N[C@@H](CCCCN)C(=O)N[C@H](C(=O)N[C@H](C(=O)N[C@@H](CC(=O)O)C(=O)O)[C@@H](C)O)[C@@H](C)CC)[C@@H](C)CC"}},
  "note": "Square brackets hold non-standard residues; d marks the D form. Aib = CC(C)(N)C(=O)O",
  "data": [
    {"biological_target": "human glucagon-like peptide 1 receptor (GLP-1R) (human, UniProt P43220 24-463)", "assay": "cell-based or functional assay", "units": {"EC50 GLP-1 (nM); cAMP AlphaScreen, HEK293 cells expressing human GLP-1R": "nM"}, "values": [
      {"binder": "B1", "EC50 GLP-1 (nM); cAMP AlphaScreen, HEK293 cells expressing human GLP-1R": 0.007},
      {"binder": "B2", "EC50 GLP-1 (nM); cAMP AlphaScreen, HEK293 cells expressing human GLP-1R": 0.007},
      {"binder": "H-HGEGTFTSELATILDEQAARDFIAWLIAHKITD-OH", "note": "[Compound 38]", "EC50 GLP-1 (nM); cAMP AlphaScreen, HEK293 cells expressing human GLP-1R": 0.008},
      {"binder": "B3", "EC50 GLP-1 (nM); cAMP AlphaScreen, HEK293 cells expressing human GLP-1R": 0.03},
      {"binder": "H-HGEGSFSSELATILDEQAARDFIAWLIQHKITD-NH2", "note": "[Compound 40]", "EC50 GLP-1 (nM); cAMP AlphaScreen, HEK293 cells expressing human GLP-1R": 1.4},
      {"binder": "B4", "EC50 GLP-1 (nM); cAMP AlphaScreen, HEK293 cells expressing human GLP-1R": 0.078}
    ]},
    {"biological_target": "T1, human GLP-2 receptor (hGLP2-R) (human, UniProt O95838 1-553)", "T1 sequence (looked up)": "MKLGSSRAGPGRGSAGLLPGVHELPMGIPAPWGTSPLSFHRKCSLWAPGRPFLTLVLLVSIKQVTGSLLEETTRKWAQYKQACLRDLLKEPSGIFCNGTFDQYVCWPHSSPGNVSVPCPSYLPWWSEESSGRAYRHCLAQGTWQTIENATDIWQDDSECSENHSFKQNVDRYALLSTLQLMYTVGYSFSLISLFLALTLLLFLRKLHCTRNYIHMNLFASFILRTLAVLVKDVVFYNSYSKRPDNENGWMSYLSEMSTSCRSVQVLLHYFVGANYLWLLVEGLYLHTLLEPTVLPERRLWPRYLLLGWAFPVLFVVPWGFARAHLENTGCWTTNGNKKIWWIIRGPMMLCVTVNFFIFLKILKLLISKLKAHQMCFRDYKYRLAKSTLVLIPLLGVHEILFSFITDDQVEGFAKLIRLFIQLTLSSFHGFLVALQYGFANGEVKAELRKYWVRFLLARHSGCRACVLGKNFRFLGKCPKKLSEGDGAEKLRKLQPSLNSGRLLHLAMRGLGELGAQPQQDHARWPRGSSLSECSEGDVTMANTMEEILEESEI", "assay": "cell-based or functional assay", "units": {"EC50 GLP-2 (nM); cAMP AlphaScreen, HEK293 cells expressing human GLP-2R": "nM"}, "values": [
      {"binder": "B1", "EC50 GLP-2 (nM); cAMP AlphaScreen, HEK293 cells expressing human GLP-2R": 0.11},
      {"binder": "B2", "EC50 GLP-2 (nM); cAMP AlphaScreen, HEK293 cells expressing human GLP-2R": 0.16},
      {"binder": "H-HGEGTFTSELATILDEQAARDFIAWLIAHKITD-OH", "note": "[Compound 38]", "EC50 GLP-2 (nM); cAMP AlphaScreen, HEK293 cells expressing human GLP-2R": 0.043},
      {"binder": "B3", "EC50 GLP-2 (nM); cAMP AlphaScreen, HEK293 cells expressing human GLP-2R": 0.96},
      {"binder": "H-HGEGSFSSELATILDEQAARDFIAWLIQHKITD-NH2", "note": "[Compound 40]", "EC50 GLP-2 (nM); cAMP AlphaScreen, HEK293 cells expressing human GLP-2R": 0.05},
      {"binder": "B4", "EC50 GLP-2 (nM); cAMP AlphaScreen, HEK293 cells expressing human GLP-2R": 0.026}
    ]}
  ]
}
